Tests used:
Core_ININ-es_KEEE = target: T1, Core_ININ-es_KEEE; assay: two-hybrid library CCmax; conditions: mean of both orientations;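 also: natural log of median RNA to DNA barcode read ratio; higher means stronger binding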
T1 chain: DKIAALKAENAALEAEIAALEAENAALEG

Core_INNI-es_KEKE = target: T2, Core_INNI-es_KEKE; assay: two-hybrid library CCmax; conditions: mean of both orientations;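 also: natural log of median RNA to DNA barcode read ratio; higher means stronger binding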
T2 chain: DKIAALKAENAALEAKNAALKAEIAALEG

Core_NIII-es_KKKK = target: T3, Core_NIII-es_KKKK; assay: two-hybrid library CCmax; conditions: mean of both orientations;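 also: natural log of median RNA to DNA barcode read ratio; higher means stronger binding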
T3 chain: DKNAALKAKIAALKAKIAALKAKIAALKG

APC1115-AA = target: T4, APC1115-AA; assay: two-hybrid library CCmax;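 also: natural log of median RNA to DNA barcode read ratio; higher means stronger binding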
T4 chain: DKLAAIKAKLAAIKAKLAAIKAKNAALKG

APC1242-AA = target: T5, APC1242-AA; assay: two-hybrid library CCmax; conditions: mean of both orientations;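 also: natural log of median RNA to DNA barcode read ratio; higher means stronger binding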
T5 chain: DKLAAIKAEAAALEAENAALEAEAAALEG

APC1916-AA = target: T6, APC1916-AA; assay: two-hybrid library CCmax; conditions: mean of both orientations;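 also: natural log of median RNA to DNA barcode read ratio; higher means stronger binding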
T6 chain: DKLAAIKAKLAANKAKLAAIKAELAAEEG

APC1987-AA = target: T7, APC1987-AA; assay: two-hybrid library CCmax; conditions: mean of both orientations
T7 chain: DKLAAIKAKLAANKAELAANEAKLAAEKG

APC222-AA = target: T8, APC222-AA; assay: two-hybrid library CCmax; conditions: mean of both orientations
T8 chain: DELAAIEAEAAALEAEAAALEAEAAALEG

APC2257-AA = target: T9, APC2257-AA; assay: two-hybrid library CCmax; conditions: mean of both orientations
T9 chain: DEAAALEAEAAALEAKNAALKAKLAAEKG

APC2375-AA = target: T10, APC2375-AA; assay: two-hybrid library CCmax; conditions: mean of both orientations
T10 chain: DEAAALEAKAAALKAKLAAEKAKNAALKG

APC2474-AA = target: T11, APC2474-AA; assay: two-hybrid library CCmax; conditions: mean of both orientations
T11 chain: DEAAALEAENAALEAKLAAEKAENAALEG

APC2543-AA = target: T12, APC2543-AA; assay: two-hybrid library CCmax; conditions: mean of both orientations
T12 chain: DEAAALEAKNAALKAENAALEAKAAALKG

APC2556-AA = target: T13, APC2556-AA; assay: two-hybrid library CCmax; conditions: mean of both orientations
T13 chain: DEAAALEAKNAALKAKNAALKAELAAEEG

APC2724-AA = target: T14, APC2724-AA; assay: two-hybrid library CCmax; conditions: mean of both orientations
T14 chain: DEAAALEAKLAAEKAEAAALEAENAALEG

APC2811-AA = target: T15, APC2811-AA; assay: two-hybrid library CCmax; conditions: mean of both orientations
T15 chain: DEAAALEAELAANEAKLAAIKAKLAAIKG

APC2981-AA = target: T16, APC2981-AA; assay: two-hybrid library CCmax; conditions: mean of both orientations
T16 chain: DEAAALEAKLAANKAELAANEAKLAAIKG

APC3265-AA = target: T17, APC3265-AA; assay: two-hybrid library CCmax; conditions: mean of both orientations
T17 chain: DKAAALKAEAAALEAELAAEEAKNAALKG

APC3323-AA = target: T18, APC3323-AA; assay: two-hybrid library CCmax; conditions: mean of both orientations
T18 chain: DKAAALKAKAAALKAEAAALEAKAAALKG

APC3354-AA = target: T19, APC3354-AA; assay: two-hybrid library CCmax; conditions: mean of both orientations
T19 chain: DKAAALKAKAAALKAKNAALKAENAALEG

APC3881-AA = target: T20, APC3881-AA; assay: two-hybrid library CCmax; conditions: mean of both orientations
T20 chain: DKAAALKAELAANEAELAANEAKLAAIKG

APC4100-AA = target: T21, APC4100-AA; assay: two-hybrid library CCmax; conditions: mean of both orientations
T21 chain: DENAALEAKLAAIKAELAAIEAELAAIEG

APC4336-AA = target: T22, APC4336-AA; assay: two-hybrid library CCmax; conditions: mean of both orientations
T22 chain: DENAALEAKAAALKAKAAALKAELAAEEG

APC5009-AA = target: T23, APC5009-AA; assay: two-hybrid library CCmax; conditions: mean of both orientations
T23 chain: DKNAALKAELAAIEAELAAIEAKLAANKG

APC542-AA = target: T24, APC542-AA; assay: two-hybrid library CCmax; conditions: mean of both orientations
T24 chain: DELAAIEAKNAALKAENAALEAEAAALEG

APC5531-AA = target: T25, APC5531-AA; assay: two-hybrid library CCmax; conditions: mean of both orientations
T25 chain: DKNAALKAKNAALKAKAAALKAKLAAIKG

APC6088-AA = target: T26, APC6088-AA; assay: two-hybrid library CCmax; conditions: mean of both orientations
T26 chain: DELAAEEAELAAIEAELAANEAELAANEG

APC7524-AA = target: T27, APC7524-AA; assay: two-hybrid library CCmax; conditions: mean of both orientations
T27 chain: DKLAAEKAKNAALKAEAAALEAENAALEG

APC8401-AA = target: T28, APC8401-AA; assay: two-hybrid library CCmax; conditions: mean of both orientations
T28 chain: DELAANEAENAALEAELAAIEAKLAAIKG

APC8516-AA = target: T29, APC8516-AA; assay: two-hybrid library CCmax; conditions: mean of both orientations
T29 chain: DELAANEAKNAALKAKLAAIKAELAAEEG

APC9141-AA = target: T30, APC9141-AA; assay: two-hybrid library CCmax; conditions: mean of both orientations
T30 chain: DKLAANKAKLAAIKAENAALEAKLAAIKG

APC9182-AA = target: T31, APC9182-AA; assay: two-hybrid library CCmax; conditions: mean of both orientations
T31 chain: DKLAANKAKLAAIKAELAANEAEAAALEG

APC9291-AA = target: T32, APC9291-AA; assay: two-hybrid library CCmax; conditions: mean of both orientations
T32 chain: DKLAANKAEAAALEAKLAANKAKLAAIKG

APC9806-AA = target: T33, APC9806-AA; assay: two-hybrid library CCmax; conditions: mean of both orientations
T33 chain: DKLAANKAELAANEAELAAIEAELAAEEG

4H166-bH = target: T34, 4H166-bH; assay: two-hybrid library CCNG1
T34 chain: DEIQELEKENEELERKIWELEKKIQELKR

4H2143-bH = target: T35, 4H2143-bH; assay: two-hybrid library CCNG1
T35 chain: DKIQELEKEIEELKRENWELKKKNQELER

4H2162-bH = target: T36, 4H2162-bH; assay: two-hybrid library CCNG1
T36 chain: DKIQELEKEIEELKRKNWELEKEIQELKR

4H2233-bH = target: T37, 4H2233-bH; assay: two-hybrid library CCNG1
T37 chain: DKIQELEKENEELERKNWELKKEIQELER

4H2253-bH = target: T38, 4H2253-bH; assay: two-hybrid library CCNG1
T38 chain: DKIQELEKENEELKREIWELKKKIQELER

4H235-bH = target: T39, 4H235-bH; assay: two-hybrid library CCNG1
T39 chain: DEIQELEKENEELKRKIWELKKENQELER

4H2444-bH = target: T40, 4H2444-bH; assay: two-hybrid library CCNG1
T40 chain: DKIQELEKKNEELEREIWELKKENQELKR

4H2518-bH = target: T41, 4H2518-bH; assay: two-hybrid library CCNG1
T41 chain: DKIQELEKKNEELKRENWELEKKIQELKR

4H2585-bH = target: T42, 4H2585-bH; assay: two-hybrid library CCNG1
T42 chain: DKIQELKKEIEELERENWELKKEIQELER

4H264-bH = target: T43, 4H264-bH; assay: two-hybrid library CCNG1
T43 chain: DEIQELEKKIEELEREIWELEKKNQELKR

4H2760-bH = target: T44, 4H2760-bH; assay: two-hybrid library CCNG1
T44 chain: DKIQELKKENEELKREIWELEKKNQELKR

4H2859-bH = target: T45, 4H2859-bH; assay: two-hybrid library CCNG1
T45 chain: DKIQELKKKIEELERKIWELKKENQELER

4H2931-bH = target: T46, 4H2931-bH; assay: two-hybrid library CCNG1
T46 chain: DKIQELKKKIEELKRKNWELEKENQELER

4H3041-bH = target: T47, 4H3041-bH; assay: two-hybrid library CCNG1
T47 chain: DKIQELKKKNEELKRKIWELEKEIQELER

4H3297-bH = target: T48, 4H3297-bH; assay: two-hybrid library CCNG1
T48 chain: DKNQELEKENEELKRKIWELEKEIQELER

4H3364-bH = target: T49, 4H3364-bH; assay: two-hybrid library CCNG1
T49 chain: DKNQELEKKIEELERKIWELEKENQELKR

4H3381-bH = target: T50, 4H3381-bH; assay: two-hybrid library CCNG1
T50 chain: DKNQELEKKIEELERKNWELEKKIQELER

4H349-bH = target: T51, 4H349-bH; assay: two-hybrid library CCNG1
T51 chain: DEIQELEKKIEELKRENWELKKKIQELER

4H56-bH = target: T52, 4H56-bH; assay: two-hybrid library CCNG1
T52 chain: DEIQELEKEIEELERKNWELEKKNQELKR

4H730-bH = target: T53, 4H730-bH; assay: two-hybrid library CCNG1
T53 chain: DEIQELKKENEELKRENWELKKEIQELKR

4H796-bH = target: T54, 4H796-bH; assay: two-hybrid library CCNG1
T54 chain: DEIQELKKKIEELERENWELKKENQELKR

4H932-bH = target: T55, 4H932-bH; assay: two-hybrid library CCNG1
T55 chain: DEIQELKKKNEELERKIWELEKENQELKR

4H949-bH = target: T56, 4H949-bH; assay: two-hybrid library CCNG1
T56 chain: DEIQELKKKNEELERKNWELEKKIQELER

4H967-bN = target: T57, 4H967-bN; assay: two-hybrid library CCNG1
T57 chain: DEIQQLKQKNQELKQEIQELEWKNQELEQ

DEIAALEAKNAALKAKIAALKAKNAALKG [Core_ININ-es_EKKK] showed an interaction score (Core_ININ-es_KEEE) of 2.37.

For DEIAALEAKNAALKAENAALEAKIAALKG [Core_INNI-es_EKEK], the interaction score (Core_INNI-es_KEKE) was 2.27.

For DENAALEAEIAALEAEIAALEAEIAALEG [Core_NIII-es_EEEE], the interaction score (Core_NIII-es_KKKK) was 2.01.

Work on DKLAAIKAKLAAIKAKLAAIKAKNAALKG [APC1115-AA] yielded an interaction score (APC1115-AA) of -0.803, an interaction score (APC1242-AA) of -1.35 and an interaction score (APC1916-AA) of -1.84. The interaction score (APC1987-AA) was -1.74, the interaction score (APC222-AA) was 0.216 and the interaction score (APC2257-AA) was -1.42. For the same binder, the interaction score (APC2375-AA) was -1.67, the interaction score (APC2474-AA) was -1.58 and the interaction score (APC2543-AA) was -1.49. The interaction score (APC2556-AA) was -1.69, the interaction score (APC2724-AA) was -1.69 and the interaction score (APC2811-AA) was -1.19. For the same binder, the interaction score (APC2981-AA) was -1.43, the interaction score (APC3265-AA) was -1.52 and the interaction score (APC3323-AA) was -1.52. The interaction score (APC3354-AA) was -1.93, the interaction score (APC3881-AA) was -1.47 and the interaction score (APC4100-AA) was 0.913. The interaction score (APC4336-AA) was -1.61, the interaction score (APC5009-AA) was -0.451 and the interaction score (APC542-AA) was -1.93. For the same binder, the interaction score (APC5531-AA) was -1.86, the interaction score (APC6088-AA) was -1.12 and the interaction score (APC7524-AA) was -1.68. It also gave an interaction score (APC8401-AA) of -1.04, an interaction score (APC8516-AA) of -1.51 and an interaction score (APC9141-AA) of -1.58. For the same binder, the interaction score (APC9182-AA) was -1.98, the interaction score (APC9291-AA) was -1.83 and the interaction score (APC9806-AA) was -1.67.

With DEIQELEKENEELERKIWELEKKIQELKR [4H166-bH] the interaction score (4H166-bH) was 0.0371, the interaction score (4H2143-bH) was 0.23 and the interaction score (4H2162-bH) was 1.49. The interaction score (4H2233-bH) was 0.81, the interaction score (4H2253-bH) was 1.03 and the interaction score (4H235-bH) was -0.624. It also gave an interaction score (4H2444-bH) of 0.192, an interaction score (4H2518-bH) of 1.54 and an interaction score (4H2585-bH) of 0.621. It also gave an interaction score (4H264-bH) of 0.0745, an interaction score (4H2760-bH) of 0.896 and an interaction score (4H2859-bH) of 1.65. It also gave an interaction score (4H2931-bH) of 1.25, an interaction score (4H3041-bH) of 1.58 and an interaction score (4H3297-bH) of 1.62. For the same binder, the interaction score (4H3364-bH) was -1.32, the interaction score (4H3381-bH) was 0.522 and the interaction score (4H349-bH) was 0.968. For the same binder, the interaction score (4H56-bH) was -1.05, the interaction score (4H730-bH) was 0.00471 and the interaction score (4H796-bH) was 0.588. It also gave an interaction score (4H932-bH) of 0.193, an interaction score (4H949-bH) of 0.814 and an interaction score (4H967-bN) of -0.508.

Source: article PMC10397247
